The target of assay [1] is T1, Recombinant human FcγRIIIa (V158) (human, UniProt P08637 17-208).
T1 construct: also called FcγRIIIa allele V158
The experiment in a line: BLI (Octet), His-tagged FcγR on anti-penta-His sensors, mAb cross-linked with anti-F(ab')2. (In BLI a coated tip is dipped into the sample, and binding shifts an interference pattern.)
Description: (§1) His-tagged human FcγRs ((A) FcγRIIa allele H131; (B) FcγRIIa allele R131; (C) FcγRIIIa allele F158; (D) FcγRIIIa allele V158; (E) FcγRIIb) at 2 μg/ml were captured onto anti-penta-His sensors for 6 minutes. FcγR-loaded sensors were then exposed for 5 minutes to a solution of kinetics buffer (pH 7.1) containing 2 μg/ml of each mAb (left part of the plot) in the presence 1 μg/ml of affiniPure F(ab′)₂ Fragment Goat Anti-Human IgG, F (ab′) 2 fragment specific (to cross-link human mAbs through the Fab fragment), followed by a dissociation step in the same buffer for additional 4 minutes (right part of the plot). Association and dissociation profiles were measured in real time as change in the interference pattern using an Octet® RED96 (FortéBio).
(§2) Briefly, His-tagged human FcγRs (FcγRIIa allele H131, FcγRIIa allele R131, FcγRIIAa allele F158, FcγRIIIa allele V158 and FcγRIIb) at 2 μg/ml were captured onto anti-penta-His sensors for 6 minutes. FcγR-loaded sensors were then exposed for 4 minutes to a solution of kinetics buffer (pH 7.1) containing 2 μg/ml of each mAb in the presence 1 μg/ml of affiniPure F(ab′)₂ Fragment Goat Anti-Human IgG, F(ab′)₂ fragment-specific (to cross-link human mAbs through the Fab fragment), followed by a dissociation step in the same buffer for 4 additional minutes (right part of the plot). Association and dissociation profiles were measured in real time as change in the interference pattern using an Octet® RED96 (FortéBio).

For assay [2], the target named is T2, Recombinant human FcγRIIIa (F158) (human, UniProt P08637 17-208).
T2 construct: also called FcγRIIIa allele F158; FcγRIIAa allele F158
The assay is described as above.
Description: as §1, §2

Assay [3] deals with T3, Recombinant human FcγRIIa (H131) (human, UniProt P12318 34-218).
T3 construct: also called FcγRIIa allele H131
T3 sequence (looked up): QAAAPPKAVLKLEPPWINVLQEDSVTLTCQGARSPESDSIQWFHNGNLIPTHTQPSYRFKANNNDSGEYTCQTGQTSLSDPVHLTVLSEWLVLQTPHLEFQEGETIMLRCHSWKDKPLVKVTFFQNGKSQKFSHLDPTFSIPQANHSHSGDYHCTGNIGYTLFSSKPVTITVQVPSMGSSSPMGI
The description is as above.
Description: as §1, §2

The target of assay [4] is T4, Human complement component C1q (human, UniProt P02745 23-245; P02746 28-253; P02747 29-245).
T4 construct: also called human complement protein C1q
The experiment in a line: BLI (Octet), IgG captured on anti-human Fab (CH1) sensors.
Description: IgG-loaded sensors were then exposed for 4 minutes to a solution of kinetics buffer (pH 7.1) containing 3 μg/ml of purified human C1q (left part of the plot), followed by a dissociation step in the same buffer for 4 additional minutes (right part of the plot). Association and dissociation profiles were measured in real time as change in the interference pattern using an Octet® RED96 (FortéBio).

In assay [5] the target is HBV HBsAg of genotype A on engineered hepatitis D virus (hepatitis B virus genotype A). The experiment in a line: cell-based or functional assay.
The target in assay [6] is HBV HBsAg of genotype C on engineered hepatitis D virus (hepatitis B virus genotype C). The experiment in a line: cell-based or functional assay.

T2 sequence (P08637 17-208 limits assumed): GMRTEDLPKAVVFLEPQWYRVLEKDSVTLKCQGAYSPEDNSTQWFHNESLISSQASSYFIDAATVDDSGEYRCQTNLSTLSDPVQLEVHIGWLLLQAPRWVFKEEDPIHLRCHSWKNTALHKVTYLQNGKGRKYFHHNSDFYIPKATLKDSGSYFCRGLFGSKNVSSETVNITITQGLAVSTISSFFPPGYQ
T4 sequence (P02745 23-245 limits assumed, chain 1 of 3): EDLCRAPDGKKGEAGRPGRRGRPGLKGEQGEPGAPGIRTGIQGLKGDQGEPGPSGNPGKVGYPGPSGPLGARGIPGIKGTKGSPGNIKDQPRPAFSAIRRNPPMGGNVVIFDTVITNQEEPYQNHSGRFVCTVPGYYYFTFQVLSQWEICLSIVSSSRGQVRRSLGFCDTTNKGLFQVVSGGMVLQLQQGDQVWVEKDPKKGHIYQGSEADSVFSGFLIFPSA
T4 sequence (P02746 28-253 limits assumed, chain 2 of 3): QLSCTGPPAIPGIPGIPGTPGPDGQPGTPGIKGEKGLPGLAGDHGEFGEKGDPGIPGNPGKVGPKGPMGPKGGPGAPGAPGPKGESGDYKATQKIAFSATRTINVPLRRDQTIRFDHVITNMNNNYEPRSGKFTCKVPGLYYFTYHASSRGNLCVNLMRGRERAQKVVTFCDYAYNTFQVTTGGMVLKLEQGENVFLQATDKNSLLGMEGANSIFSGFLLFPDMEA
T4 sequence (P02747 29-245 limits assumed, chain 3 of 3): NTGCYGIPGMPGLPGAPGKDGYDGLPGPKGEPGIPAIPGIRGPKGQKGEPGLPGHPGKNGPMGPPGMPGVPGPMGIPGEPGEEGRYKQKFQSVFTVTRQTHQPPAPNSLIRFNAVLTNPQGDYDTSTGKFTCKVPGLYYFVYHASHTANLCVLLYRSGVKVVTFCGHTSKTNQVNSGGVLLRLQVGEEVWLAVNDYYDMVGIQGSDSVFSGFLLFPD
T1 sequence (P08637 17-208 F176V limits assumed): as the sequence (P08637 17-208 limits assumed) above, with F160V counted along it

B1: HBC34-V35-MLNS-GAALIE (antibody, human IgG1, lambda)
heavy: ELQLVESGGGWVQPGGSQRLSCAASGRIFRSFYMSWVRQAPGKGLEWVATINQDGSEKLYVDSVKGRFTISRDNAKNSLFLQMNNLRVEDTAVYYCAAWSGNSGGMDVWGQGTTVSVSSASTKGPSVFPLAPSSKSTSGGTAALGCLVKDYFPEPVTVSWNSGALTSGVHTFPAVLQSSGLYSLSSVVTVPSSSLGTQTYICNVNHKPSNTKVDKKVEPKSCDKTHTCPPCPAPELLAGPSVFLFPPKPKDTLMISRTPEVTCVVVDVSHEDPEVKFNWYVDGVEVHNAKTKPREEQYNSTYRVVSVLTVLHQDWLNGKEYKCKVSNKALPLPEEKTISKAKGQPREPQVYTLPPSRDELTKNQVSLTCLVKGFYPSDIAVEWESNGQPENNYKTTPPVLDSDGSFFLYSKLTVDKSRWQQGNVFSCSVLHEALHSHYTQKSLSLSPGK
light: SYELTQPPSVSVSPGQTVSIPCSGDKLGNKNVAWFQHKPGQSPVLVIYEVKYRPSGIPERFSGSNSGNTATLTISGTQAMDEAAYFCQTFDSTTVVFGGGTRLTVLGQPKAAPSVTLFPPSSEELQANKATLVCLISDFYPGAVTVAWKADSSPVKAGVETTTPSKQSNNKYAASSYLSLTPEQWKSHRSYSCQVTHEGSTVEKTVAPTECS
Consider B1, for which the binding result is recorded as “binds” in assay [1], “binds” in assay [2], “binds” in assay [3] and “no binding (tested: 3 µg/ml of purified human C1q)” in assay [4]. For the same molecule, the “neutralization EC50, HDV engineered to express HBV HBsAg” value in assay [5] came to 2.34 ng/mL; in assay [6], 0.92 ng/mL.
